Measured values from patent US20240301053A1, “COMBINATION THERAPIES WITH VENETOCLAX AND TIM-3 INHIBITORS” (Novartis AG, priority 2019, published 2024).

Biological target: T1, TIM-3/Galectin-9 interaction (Homo sapiens, UniProt Q8TDQ0)
T1 construct: TIM-3 fusion protein (R&D Systems) was coated on a standard MesoScale 96 well plate; purchased R&D Systems
Test: plate-based (MesoScale) TIM-3/Galectin-9 competition assay
Type: binding
Conditions: TIM-3 fusion protein coated at 2 μg/ml; labeled Galectin-9 100 nM; serial dilutions
Protocol: TIM-3 fusion protein (R&D Systems) was coated on a standard MesoScale 96 well plate (Meso Scale Discovery) at 2 μg/ml in PBS (Phosphate Buffered Saline) and incubated for six hours at room temperature. The plate was washed three times with PBST (PBS buffer containing 0.05% Tween-20) and blocked with PBS containing 5% Probumin (Millipore) overnight at 4° C. After incubation, the plate was washed three times with PBST and unlabeled antibody (F38-2E2 (BioLegend); MBG453; MBG453 F(ab′)2; MBG453 F(ab); or control recombinant human Galectin-9 protein) diluted in Assay Diluent (2% Probumin, 0.1% Tween-20, 0.1% Triton X-100 (Sigma) with 10% StabilGuard (SurModics)), was added in serial dilutions to the plate and incubated for one hour on an orbital shaker at room temperature. The plate was then washed three times with PBST, and Galectin-9 labeled with MSD SULFOTag (Meso Scale Discovery) as per manufacturer's instructions, diluted in Assay Diluent to 100 nM, was added to the plate for one hour at room temperature on an orbital shaker. The plate was again washed three times with PBST, and Read Buffer T (1×) was added to the plate. The plate was read on MA600 Imager, and competition was assessed as a measure of the ability of the antibody to block Ga19-SULFOTag signal to TIM-3 receptor.

B1: control Galectin-9 protein: control recombinant human Galectin-9 protein, unlabeled (protein)
chain: AFSGSQAPYLSPAVPFSGTIQGGLQDGLQITVNGTVLSSSGTRFAVNFQTGFSGNDIAFHFNPRFEDGGYVVCNTRQNGSWGPEERKTHMPFQKGMPFDLCFLVQSSDFKVMVNGILFVQYFHRVPFHRVDTISVNGSVQLSYISFQPPGVWPANPAPITQTVIHTVQSAPGQMFSTPAIPPMMYPHPAYPMPFITTILGGLYPSKSILLSGTVLPSAQRFHINLCSGNHIAFHLNPRFDENAVVRNTQIDNSWGSEERSLPRKMPFVRGQSFSVWILCEAHCLKVAVDGQHLFEYYHRLRNLPTINRLEVGGDIQLTHVQT
  ability to block Gal9-SULFOTag signal to TIM-3 receptor (interaction between TIM-3 and Galectin-9): did not
